According to ChEMBL document CHEMBL1151784, “Antibiotic evaluation and in vivo analysis of alkynyl Coenzyme A antimetabolites in Escherichia coli” (2008):

Tests used:
[1] = substrate: CC(C)(CO)[C@@H](O)C(=O)NCCC(=O)NCCN=[N+]=[N-]; test: (§1) Activity of Escherichia coli K12 CoaA
[2] = substrate: C=CC(=O)NCCNC(=O)CCNC(=O)[C@H](O)C(C)(C)CO; test: as §1
[3] = substrate: CC(C)(CO)[C@@H](O)C(=O)NCCC(=O)O; test: as §1
[4] = substrate: CCC(=O)NCCNC(=O)CCNC(=O)[C@H](O)C(C)(C)CO; test: as §1
[5] = substrate: C#CCCC(=O)NCCNC(=O)CCNC(=O)[C@H](O)C(C)(C)CO; test: as §1
[6] = substrate: C#CCNC(=O)[C@H](O)C(C)(C)CO; test: as §1
[7] = substrate: CCCNC(=O)CCNC(=O)[C@H](O)C(C)(C)CO; test: as §1
[8] = substrate: C#CCCCNC(=O)CCNC(=O)[C@H](O)C(C)(C)CO; test: as §1
[9] = substrate: C=CCNC(=O)CCNC(=O)[C@H](O)C(C)(C)CO; test: as §1
[10] = substrate: CCOC(=O)NCCNC(=O)CCNC(=O)[C@H](O)C(C)(C)CO; test: as §1
[11] = substrate: CCC(=O)OCCNC(=O)CCNC(=O)[C@H](O)C(C)(C)CO; test: as §1
[12] = substrate: C#CCCCCNC(=O)CCNC(=O)[C@H](O)C(C)(C)CO; test: as §1
[13] = substrate: C#CC(=O)NCCNC(=O)CCNC(=O)[C@H](O)C(C)(C)CO; test: as §1
[14] = substrate: C#CCCNC(=O)CCNC(=O)[C@H](O)C(C)(C)CO; test: as §1
[15] = substrate: CCCCCNC(=O)CCNC(=O)[C@H](O)C(C)(C)CO; test: as §1
[16] = substrate: C#CCNC(=O)CCNC(=O)[C@H](O)C(C)(C)CO; test: as §1
[17] = substrate: CC(C)(CO)[C@@H](O)C(=O)NCCC(=O)NCCN=[N+]=[N-]; test: (§2) Ratio of kcat to Km for Escherichia coli K12 CoaA
[18] = substrate: C=CC(=O)NCCNC(=O)CCNC(=O)[C@H](O)C(C)(C)CO; test: as §2
[19] = substrate: CC(C)(CO)[C@@H](O)C(=O)NCCC(=O)O; test: as §2
[20] = substrate: CCC(=O)NCCNC(=O)CCNC(=O)[C@H](O)C(C)(C)CO; test: as §2
[21] = substrate: C#CCCC(=O)NCCNC(=O)CCNC(=O)[C@H](O)C(C)(C)CO; test: as §2
[22] = substrate: C#CCNC(=O)[C@H](O)C(C)(C)CO; test: as §2
[23] = substrate: CCCNC(=O)CCNC(=O)[C@H](O)C(C)(C)CO; test: as §2
[24] = substrate: C#CCCCNC(=O)CCNC(=O)[C@H](O)C(C)(C)CO; test: as §2
[25] = substrate: C=CCNC(=O)CCNC(=O)[C@H](O)C(C)(C)CO; test: as §2
[26] = substrate: CCOC(=O)NCCNC(=O)CCNC(=O)[C@H](O)C(C)(C)CO; test: as §2
[27] = substrate: CCC(=O)OCCNC(=O)CCNC(=O)[C@H](O)C(C)(C)CO; test: as §2
[28] = substrate: C#CCCCCNC(=O)CCNC(=O)[C@H](O)C(C)(C)CO; test: as §2
[29] = substrate: C#CC(=O)NCCNC(=O)CCNC(=O)[C@H](O)C(C)(C)CO; test: as §2
[30] = substrate: C#CCCNC(=O)CCNC(=O)[C@H](O)C(C)(C)CO; test: as §2
[31] = substrate: CCCCCNC(=O)CCNC(=O)[C@H](O)C(C)(C)CO; test: as §2
[32] = substrate: C#CCNC(=O)CCNC(=O)[C@H](O)C(C)(C)CO; test: as §2

B1: Pantothenate kinase (Escherichia coli K-12), P0A6I3 (protein)
chain: MSIKEQTLMTPYLQFDRNQWAALRDSVPMTLSEDEIARLKGINEDLSLEEVAEIYLPLSRLLNFYISSNLRRQAVLEQFLGTNGQRIPYIISIAGSVAVGKSTTARVLQALLSRWPEHRRVELITTDGFLHPNQVLKERGLMKKKGFPESYDMHRLVKFVSDLKSGVPNVTAPVYSHLIYDVIPDGDKTVVQPDILILEGLNVLQSGMDYPHDPHHVFVSDFVDFSIYVDAPEDLLQTWYINRFLKFREGAFTDPDSYFHNYAKLTKEEAIKTAMTLWKEINWLNLKQNILPTRERASLILTKSANHAVEEVRLRK
Km [1]: 43.5 µM
Vmax [1]: 0.28 µM/s
kcat [1]: 0.0115 s⁻¹
Km [2]: 58 µM
Vmax [2]: 0.26 µM/s
kcat [2]: 0.0107 s⁻¹
Km [3]: 35.8 µM
Vmax [3]: 0.31 µM/s
kcat [3]: 0.0127 s⁻¹
Km [4]: 34.6 µM
Vmax [4]: 0.22 µM/s
kcat [4]: 0.00883 s⁻¹
Km [5]: 47.8 µM
Vmax [5]: 0.23 µM/s
kcat [5]: 0.00933 s⁻¹
Km [6]: 396 µM
Vmax [6]: 0.26 µM/s
kcat [6]: 0.0107 s⁻¹
Km [7]: 36.9 µM
Vmax [7]: 0.37 µM/s
kcat [7]: 0.0152 s⁻¹
Km [8]: 40.3 µM
Vmax [8]: 0.29 µM/s
kcat [8]: 0.012 s⁻¹
Km [9]: 41.2 µM
Vmax [9]: 0.38 µM/s
kcat [9]: 0.0157 s⁻¹
Km [10]: 33.7 µM
Vmax [10]: 0.25 µM/s
kcat [10]: 0.0103 s⁻¹
Km [11]: 27.8 µM
Vmax [11]: 0.26 µM/s
kcat [11]: 0.0108 s⁻¹
Km [12]: 40 µM
Vmax [12]: 0.29 µM/s
kcat [12]: 0.012 s⁻¹
Km [13]: 48.5 µM
Vmax [13]: 0.22 µM/s
kcat [13]: 0.009 s⁻¹
Km [14]: 34 µM
Vmax [14]: 0.33 µM/s
kcat [14]: 0.0135 s⁻¹
Km [15]: 34 µM
Vmax [15]: 0.34 µM/s
kcat [15]: 0.014 s⁻¹
Km [16]: 36 µM
Vmax [16]: 0.31 µM/s
kcat [16]: 0.0128 s⁻¹
kcat/Km [17]: 268 M⁻¹ s⁻¹
kcat/Km [18]: 183 M⁻¹ s⁻¹
kcat/Km [19]: 352 M⁻¹ s⁻¹
kcat/Km [20]: 257 M⁻¹ s⁻¹
kcat/Km [21]: 195 M⁻¹ s⁻¹
kcat/Km [22]: 27 M⁻¹ s⁻¹
kcat/Km [23]: 411 M⁻¹ s⁻¹
kcat/Km [24]: 299 M⁻¹ s⁻¹
kcat/Km [25]: 381 M⁻¹ s⁻¹
kcat/Km [26]: 305 M⁻¹ s⁻¹
kcat/Km [27]: 392 M⁻¹ s⁻¹
kcat/Km [28]: 300 M⁻¹ s⁻¹
kcat/Km [29]: 185 M⁻¹ s⁻¹
kcat/Km [30]: 396 M⁻¹ s⁻¹
kcat/Km [31]: 410 M⁻¹ s⁻¹
kcat/Km [32]: 356 M⁻¹ s⁻¹
